# Assays:
# A549 cells [1] = test: Cytotoxic effect (cell count by flow cytometer), TTFields with or without Sacituzumab Govitecan; format: cell-based, human; conditions: concomitant with TTFields 1.62 V/cm RMS, 150 kHz, 72 h; FIG. 3
# Method: (§1) Tests were performed on three different cell types: A549, A2780 and 4T1. A549 cells are adenocarcinomec human alveolar basal epithelial cells. A2780 is a human ovarian cancer cell line. 4T1 is a breast cancer cell line derived from the mammary gland tissue of a mouse BALB/c strain.
# (§2) NSCLC cells A549 were treated for 72 h with TTFields at an intensity of 1.62 V/cm RMS and a frequency of 150 kHz using the Inovitro system. TTFields were applied to the cells in the absence or presence of the Trop2 inhibitor Sacituzumab Govitecan. Treated cells were counted using a flow cytometer, and cytotoxic effect was calculated relative to control cells.
# A549 cells [2] = test: Overall effect (cytotoxic x clonogenic effect), TTFields with or without Sacituzumab Govitecan; format: cell-based, human; conditions: concomitant with TTFields 1.62 V/cm RMS, 150 kHz, 72 h; re-plated, grown 7-14 days; FIG. 4
# Method: as §1
# (§3) NSCLC cells A549 were treated for 72 h with TTFields at an intensity of 1.62 V/cm RMS and a frequency of 150 kHz using the Inovitro system. TTFields were applied to the cells in the absence or presence of the Trop2 inhibitor Sacituzumab Govitecan. Treated cells were harvested, re-plated, and grown for an additional 7-14 days. Colonies were stained (0.5% crystal violet solution), counted, and clonogenic effect was calculated relative to control. Overall effect was calculated by multiplying the cytotoxic and clonogenic effects.
# 4T1 cells [3] = test: as above; format: cell-based, mouse; conditions: concomitant with TTFields 1.62 V/cm RMS, 150 kHz, 72 h; re-plated, grown 7-14 days; FIG. 10
# Method: as §1
# as §3, with “Mammary carcinoma” for “NSCLC”, “4T1” for “A549”
# A549 cells [4] = test: Apoptosis, annexin V / 7AAD flow cytometry, TTFields with or without Sacituzumab Govitecan; format: cell-based, human; conditions: concomitant with TTFields 1.62 V/cm RMS, 150 kHz, 72 h, FIG. 5
# Method: Tests were performed on three different cell types: A549, A2780 and 4T1. A549 cells are adenocarcinomec human alveolar basal epithelial cells. A2780 is a human ovarian cancer cell line. 4T1 is a breast cancer cell line derived from the mammary gland tissue of a mouse BALB/c strain. […] NSCLC cells A549 were treated for 72 h with TTFields at an intensity of 1.62 V/cm RMS and a frequency of 150 kHz using the Inovitro system. TTFields were applied to the cells in the absence or presence of the Trop2 inhibitor Sacituzumab Govitecan. Treated cells were double-stained with FITC-conjugated annexin V and 7-aminoactinomycin D (7AAD), and data acquisition was performed using a flow cytometer.
# A2780 cells [5] = test: Cytotoxic effect (cell count by flow cytometer), TTFields with or without Sacituzumab Govitecan; format: cell-based, human; conditions: concomitant with TTFields 1.62 V/cm RMS, 200 kHz, 72 h; FIG. 6
# Method: as §1
# as §2, with “Ovarian carcinoma” for “NSCLC”, “A2780” for “A549”, “200” for “150”
# 4T1 cells [6] = test: Apoptosis, annexin V / 7AAD flow cytometry, TTFields with or without Sacituzumab Govitecan; format: cell-based, mouse; conditions: concomitant with TTFields 1.62 V/cm RMS, 150 kHz, 72 h, FIG. 11
# Method: Tests were performed on three different cell types: A549, A2780 and 4T1. A549 cells are adenocarcinomec human alveolar basal epithelial cells. A2780 is a human ovarian cancer cell line. 4T1 is a breast cancer cell line derived from the mammary gland tissue of a mouse BALB/c strain. Lastly, like A549 cells (FIGS. 5) and A2780 cells (FIG. 8), concomitant treatment of TTFields with Sacituzumab Govitecan enhanced the apoptotic effect in 4T1 cells (FIG. 11). Mammary carcinoma cells 4T1 were treated for 72 h with TTFields at an intensity of 1.62 V/cm RMS and a frequency of 150 kHz using the Inovitro system. TTFields were applied to the cells in the absence or presence of the Trop2 inhibitor Sacituzumab Govitecan. Treated cells were double-stained with FITC-conjugated annexin V and 7-aminoactinomycin D (7AAD), and data acquisition was performed using a flow cytometer. AnnexinV−7AAD−, live cells; AnnexinV+7AAD−, cells at early apoptosis; AnnexinV+7AAD+, cells at late apoptosis.
# A2780 cells [7] = test: as above; format: cell-based, human; conditions: concomitant with TTFields 1.62 V/cm RMS, 200 kHz, 72 h, FIG. 8
# Method: Tests were performed on three different cell types: A549, A2780 and 4T1. A549 cells are adenocarcinomec human alveolar basal epithelial cells. A2780 is a human ovarian cancer cell line. 4T1 is a breast cancer cell line derived from the mammary gland tissue of a mouse BALB/c strain. […] Ovarian carcinoma cells A2780 were treated for 72 h with TTFields at an intensity of 1.62 V/cm RMS and a frequency of 200 kHz using the Inovitro system. TTFields were applied to the cells in the absence or presence of the Trop2 inhibitor Sacituzumab Govitecan. Treated cells were double-stained with FITC-conjugated annexin V and 7-aminoactinomycin D (7AAD), and data acquisition was performed using a flow cytometer.
# 4T1 cells [8] = test: Cytotoxic effect (cell count by flow cytometer), TTFields with or without Sacituzumab Govitecan; format: cell-based, mouse; conditions: concomitant with TTFields 1.62 V/cm RMS, 150 kHz, 72 h; FIG. 9
# Method: as §1
# as §2, with “Mammary carcinoma” for “NSCLC”, “4T1” for “A549”
# A2780 cells [9] = test: Overall effect (cytotoxic x clonogenic effect), TTFields with or without Sacituzumab Govitecan; format: cell-based, human; conditions: concomitant with TTFields 1.62 V/cm RMS, 200 kHz, 72 h; re-plated, grown 7-14 days; FIG. 7
# Method: as §1
# as §3, with “Ovarian carcinoma” for “NSCLC”, “A2780” for “A549”, “200” for “150”
substance,measurement,setting,value
Sacituzumab Govitecan,A549 cell growth (cytotoxic effect relative to control cells),A549 cells [1],synergistically inhibited
same,overall effect in A549 cells (cytotoxic x clonogenic effects),A549 cells [2],synergistically elevated
same,overall effect in 4T1 cells (cytotoxic x clonogenic effects),4T1 cells [3],synergistically elevated
same,apoptotic effect in A549 cells,A549 cells [4],enhanced
same,A2780 cell growth (cytotoxic effect relative to control cells),A2780 cells [5],synergistically inhibited
same,apoptotic effect in 4T1 cells,4T1 cells [6],enhanced
same,apoptotic effect in A2780 cells,A2780 cells [7],enhanced
same,4T1 cell growth (cytotoxic effect relative to control cells),4T1 cells [8],synergistically inhibited
same,overall effect in A2780 cells (cytotoxic x clonogenic effects),A2780 cells [9],synergistically elevated
